# Assay results: patent publication US20210269499A1, “HEPATITIS B AND/OR HEPATITIS D-PERMISSIVE CELLS AND ANIMALS” (TECHNISCHE UNIVERSITAET MUENCHEN, priority 2018, published 2021)
# Tests used:
# porcine NTCP = assay: Guide RNA efficiency to cause Indel mutations in porcine kidney fibroblasts (CRISPR/Cas9); assay type: cell-based; conditions: modified PX330 plasmid
# Experimental: Here, porcine kidney fibroblasts were transfected with a modified PX330 plasmid, carrying an additional Puromycin selection cassette, porcine NTCP guide RNA sequence and Cas9 nuclease. Several guide RNA sequences (18 bp long) were tested for their efficiency to cause Insertion/Deletion (Indel) mutations.
# HBV [1] = assay: qPCR of HBV rcDNA and cccDNA in PPH; assay type: cell-based, Hepatitis B virus; conditions: day 5 after infection, FIG. 3
# Experimental: (§1) Primary porcine hepatocytes (PPH) were isolated from a pig liver less than 3 h after slaughter and kept in culture: For infection experiments, the cells were seeded in a 24 well plate and for Southern Blot experiments into 6 well plates. The next day, the cells were transduced with adenovirus at an MOI of 1 or 5 (see FIG. 2) and cultured in DMEM-F12 comprising […]. The sequences of the adenoviruses are shown in SEQ ID NO: 6 for Ad-hNTCP, SEQ ID NO: 7 for Ad-phNTCP and SEQ ID NO: 8 for Ad-hNTCP-tdTomato.
# (§2) On day 4 after isolation (day 3 after transduction), the cells were infected with HBV (genotype D, serotype ayw) in DMEM-F12 with 4% PEG6000 with an MOI of 1000.
# On day 5 after infection, the 24 well plates were lysed, frozen and then DNA was isolated and analyzed for rcDNA or cccDNA using qPCR. In detail, total cellular DNA was extracted using NucleoSpin Tissue kit (Macherey Nagel). For selective cccDNA PCR, isolated DNA was treated with 5 units of T5 exonuclease (NEB, Frankfurt, Germany) for 30 min in 10 μl reaction volume (Xia 2017b) followed by heat-inactivation at 95° C. for 5 min and 4-fold dilution with distilled water. Two different primer sets were used to detect total intracellular HBV DNA (HBV1844F: 5′-[…]-3′ (SEQ ID NO: 9) and HBV1745R: 5′-GGAGGGATACATAG (SEQ ID NO: 10).
# HBV [2] = assay: HBV infection of HepG2 cells transfected with NTCP variants, HBeAg ELISA of supernatant; assay type: cell-based, Hepatitis B virus; conditions: HepG2 transfected with NTCP plasmid, HBV MOI 300, days 4, 7 and 10 after infection, FIG. 5A
# Experimental: However, neither of these approaches was successful with porcine NTCP. […] Therefore, these human cells are a valuable tool to analyze the effect of different NTCP muteins in a human cell culture system.
# HepG2 cells were transfected with plasmids coding for different variants of NTCP: human (hNTCP), porcine (pNTCP) or chimeric (pNTCP w/ hAA). After transfection, the cells were incubated for three days with 2% DMSO before they were infected with HBV at an MOI of 300. The supernatant was collected at days 4, 7 and 10 after infection and analyzed for the viral protein HBeAg by ELISA.
# HBV [3] = assay: Southern Blot analysis of HBV cccDNA in PPH; assay type: cell-based, Hepatitis B virus; conditions: day 4 after infection with HBV, FIG. 4
# Experimental: as §1, §2
# On days 3 and 5 after HBV infection, samples were taken for HBeAg measurements. Medium was changed on day 3 after HBV infection. The 6 well plate for the Southern Blot analysis was frozen at −80° C. on day 4 after HBV infection and used for a Hirt extraction with subsequent Southern Blot. To detect protein-free forms of HBV DNA including cccDNA, a modified Hirt extraction procedure was used (Yan et al. 2012). Intracellular capsid-associated DNA was prepared as described (Ko et al. 2014). Viral DNA forms were separated on an agarose gel, transferred onto a nylon membrane, and hybridized with a digoxigenin-labeled HBV-specific probe (Ko et al. 2014). DNA signal was detected by DIG Luminescent Detection Kit (Roche).
Molecule,Indel frequency (porcine NTCP),HBV cccDNA in PPH (HBV [1]),HBV rcDNA in PPH (HBV [1]),susceptibility of HepG2 cells to HBV (HBeAg in supernatant) (HBV [2]),HBV cccDNA in Southern Blot (HBV [3])
NTCP G3: guide RNA sequence GAAGGACAAGGTGCCCTA (SEQ ID NO: 22) (expressed or natural sequence),highest,–,–,–,–
"hNTCP: human NTCP receptor (SEQ ID NO: 4) (protein, listed as Homo sapiens) MEAHNASAPFNFTLPPNFGKRPTDLALSVILVFMLFFIMLSLGCTMEFSKIKAHLWKPKGLAIALVAQYGIMPLTAFVLGKVFRLKNIEALAILVCGCSPGGNLSNVFSLAMKGDMNLSIVMTTCSTFCALGMMPLLLYIYSRGIYDGDLKDKVPYKGIVISLVLVLIPCTIGIVLKSKRPQYMRYVIKGGMIIILLCSVAVTVLSAINVGKSIMFAMTPLLIATSSLMPFIGFLLGYVLSALFCLNGRCRRTVSMETGCQNVQLCSTILNVAFPPEVIGPLFFFPLLYMIFQLGEGLLLIAIFWCYEKFKTPKDKTKMIYTAATTEETIPGALGNGTYKGEDCSP",–,drastic increase,drastic increase,susceptible to HBV,show HBV cccDNA
